Each block holds one binder with its values, some of them ahead of it.
What was measured:
mouse DLL3 protein = target: T1, mouse DLL3 protein (mouse, UniProt O88516 33-490, limits assumed); assay: Octet (DLL3 on AR2G tips), ELISA and FACS; values only in FIG. 3
T1 construct: also called murine DLL3
T1 sequence (looked up): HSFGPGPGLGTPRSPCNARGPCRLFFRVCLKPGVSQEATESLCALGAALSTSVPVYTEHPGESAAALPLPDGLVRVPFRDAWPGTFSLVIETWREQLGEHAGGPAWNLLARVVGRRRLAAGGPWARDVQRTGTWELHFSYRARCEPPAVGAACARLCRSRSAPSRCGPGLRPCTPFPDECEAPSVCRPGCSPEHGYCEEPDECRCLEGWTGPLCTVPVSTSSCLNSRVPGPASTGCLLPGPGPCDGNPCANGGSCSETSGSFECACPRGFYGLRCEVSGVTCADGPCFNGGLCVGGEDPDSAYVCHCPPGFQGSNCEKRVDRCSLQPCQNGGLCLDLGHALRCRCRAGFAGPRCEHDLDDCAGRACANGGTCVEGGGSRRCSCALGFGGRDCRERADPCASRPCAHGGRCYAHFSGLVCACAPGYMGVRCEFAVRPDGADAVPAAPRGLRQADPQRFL

mouse DLL3 on CHO cells = target: T2, mouse DLL3 on CHO cells (mouse, UniProt O88516 33-592); assay: flow cytometry (FACS) on CHO cells expressing mouse DLL3
T2 construct: whole, on cells; also called CHO cells expressing mouse DLL3
T2 sequence (looked up): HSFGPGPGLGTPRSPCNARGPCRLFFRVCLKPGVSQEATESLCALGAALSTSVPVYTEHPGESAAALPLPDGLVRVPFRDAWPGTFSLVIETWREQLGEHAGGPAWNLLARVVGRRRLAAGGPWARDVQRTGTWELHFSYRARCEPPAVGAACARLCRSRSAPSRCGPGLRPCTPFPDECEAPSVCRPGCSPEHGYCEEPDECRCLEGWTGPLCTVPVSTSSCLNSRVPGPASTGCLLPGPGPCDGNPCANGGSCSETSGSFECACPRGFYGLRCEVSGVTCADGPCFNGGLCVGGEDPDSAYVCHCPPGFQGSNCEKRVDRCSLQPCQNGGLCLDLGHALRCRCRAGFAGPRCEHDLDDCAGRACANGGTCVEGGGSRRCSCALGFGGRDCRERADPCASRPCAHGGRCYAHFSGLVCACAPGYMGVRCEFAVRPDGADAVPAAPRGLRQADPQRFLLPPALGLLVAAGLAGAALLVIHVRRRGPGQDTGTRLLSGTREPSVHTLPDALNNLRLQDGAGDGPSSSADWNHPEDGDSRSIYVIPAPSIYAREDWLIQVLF
Protocol: (§1) Additional experiments were carried out to further characterize the binding properties of the anti-DLL3 constructs. Binding properties tested include dissociation constant (KD), off-rate (koff), binding to DLL3 protein by ELISA and binding to CHO cells expressing human, cyno or mouse DLL3. To obtain off-rate (koff), human biotinylated DLL3 was immobilized on Octet SA tips, and cynomolgus or mouse DLL3 was immobilized on Octet AR2G tips. For each DLL3 protein, the binding to a dilution series of each anti-DLL3 construct was measured using Fortebio Octet Red. The dissociation constant (KD), off-rate (koff) and other kinetic parameters for each anti-DLL3 construct were calculated using a 1:1 binding model. In addition, binding of these anti-DLL3 constructs to CHO cells expressing human, cyno or mouse DLL3 protein was analyzed using flow cytometry (FACS).

[1] = target: T3, DLL3 target antigen coated on Octet SA tips (binning experiment) (Homo sapiens (Human), UniProt Q9NYJ7 27-492, Probably biotinylated for capture on streptavidin (SA) tips. The site is not stated.); assay: Octet binning on DLL3-coated SA tips; competitor: 3HCE4
T3 sequence: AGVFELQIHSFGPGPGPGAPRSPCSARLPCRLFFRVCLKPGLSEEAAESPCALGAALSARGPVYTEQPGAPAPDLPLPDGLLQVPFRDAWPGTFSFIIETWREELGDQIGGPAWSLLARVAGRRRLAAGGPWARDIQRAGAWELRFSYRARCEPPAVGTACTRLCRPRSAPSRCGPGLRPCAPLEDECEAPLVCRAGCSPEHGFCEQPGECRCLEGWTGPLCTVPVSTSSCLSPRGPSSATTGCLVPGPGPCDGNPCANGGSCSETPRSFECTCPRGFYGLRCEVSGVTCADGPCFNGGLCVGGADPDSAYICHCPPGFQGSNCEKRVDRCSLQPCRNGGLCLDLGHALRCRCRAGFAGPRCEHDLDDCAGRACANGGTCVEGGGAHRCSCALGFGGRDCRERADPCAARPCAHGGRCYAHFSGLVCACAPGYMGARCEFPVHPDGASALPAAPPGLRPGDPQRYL
Protocol: (§2) Antibody binning experiments were carried out for 5 anti-DLL3 VHHs and an anti-human DLL3 BiTE (SEQ ID NO: 756). The target antigen was coated on a series of Octet SA tips. Each series of tips was first soaked in a periplasmic extract containing one specific VHH. After the response signals reached saturation, the tips were transferred to a mix of PEs containing again the first VHH (at the same concentration) plus a different VHH (termed secondary VHH) for each tip of the series. Secondary VHH that still bind the target antigen in the presence of the first VHH will show an increased response, as compared to the binding response of the first VHH alone. This was repeated for each VHH as primary VHH until all VHH were tested against each other in both directions (as primary and as secondary binder). From the response data, the bins were deduced for each VHH. 2HCE117 and 3HCE4 show competition with the human DLL3 BiTEs, whereas 3HCE56 and 3HCE87 show a partial competition.

[2] = target: T3, DLL3 target antigen coated on Octet SA …; assay: Octet binning on DLL3-coated SA tips; competitor: 2HCE27
Protocol: as §2

[3] = target: T3, DLL3 target antigen coated on Octet SA …; assay: Octet binning on DLL3-coated SA tips; competitor: 3HCE56
Protocol: as §2

[4] = target: T3, DLL3 target antigen coated on Octet SA …; assay: Octet binning on DLL3-coated SA tips; competitor: 3HCE87
Protocol: as §2

[5] = target: T3, DLL3 target antigen coated on Octet SA …; assay: Octet binning on DLL3-coated SA tips; competitor: 2HCE117
Protocol: as §2

[6] = target: T3, DLL3 target antigen coated on Octet SA …; assay: Octet binning on DLL3-coated SA tips; competitor: DLL3 BiTEs
Protocol: as §2

DLL3 (ELISA DLL3) = target: T4, DLL3 (ELISA DLL3); assay: ELISA, ratio of the signal on DLL3 to the signal on the control
T4 construct: also called DLL3 protein in ELISA
T4 chain: T3 sequence

[7] = target: T5, recombinant human DLL3 protein (human, UniProt Q9NYJ7 27-492, limits assumed); assay: Fortebio Octet Red, DLL3 immobilised on tips, dilution series of the VHH, 1:1 binding model; KD error 2.22E-11; Full R2 0.9955
T5 construct: also called rhu DLL3; human biotinylated DLL3
T5 sequence (looked up): T3 sequence
Protocol: as §1

[8] = target: T5, recombinant human DLL3 protein; assay: Fortebio Octet Red, DLL3 immobilised on tips, dilution series of the VHH, 1:1 binding model; kon error 9.86E+02; Full R2 0.9955
Protocol: as §1

[9] = target: T5, recombinant human DLL3 protein; assay: Fortebio Octet Red, DLL3 immobilised on tips, dilution series of the VHH, 1:1 binding model; koff error 2.13E-06; Full R2 0.9955
Protocol: as §1

[10] = target: T5, recombinant human DLL3 protein; assay: Fortebio Octet Red, DLL3 immobilised on tips, dilution series of the VHH, 1:1 binding model; KD error 7.00E-11; Full R2 0.9522
Protocol: as §1

[11] = target: T5, recombinant human DLL3 protein; assay: Fortebio Octet Red, DLL3 immobilised on tips, dilution series of the VHH, 1:1 binding model; kon error 2.27E+03; Full R2 0.9522
Protocol: as §1

[12] = target: T5, recombinant human DLL3 protein; assay: Fortebio Octet Red, DLL3 immobilised on tips, dilution series of the VHH, 1:1 binding model; koff error 5.76E-06; Full R2 0.9522
Protocol: as §1

[13] = target: T5, recombinant human DLL3 protein; assay: Fortebio Octet Red, DLL3 immobilised on tips, dilution series of the VHH, 1:1 binding model; KD error 1.32E-09; Full R2 0.9111
Protocol: as §1

[14] = target: T5, recombinant human DLL3 protein; assay: Fortebio Octet Red, DLL3 immobilised on tips, dilution series of the VHH, 1:1 binding model; kon error 7.26E+01; Full R2 0.9111
Protocol: as §1

[15] = target: T5, recombinant human DLL3 protein; assay: Fortebio Octet Red, DLL3 immobilised on tips, dilution series of the VHH, 1:1 binding model; koff error 2.95E-06; Full R2 0.9111
Protocol: as §1

B1: 3HCE4 anti-DLL3 VHH (VHH)
VHH: QVQLQESGGGLVQAGASLKLSCAVSGRAGSSYDMGWLRQAPGKEREFVAIITWSGNTAYKDSVKGRFIISRDNAKNTVYLEMNSLAPEDTAVYYCAAALSEKKYEYWGQGTQVTVSS
notes: In the binning assay it was used as a periplasmic extract
binding result (mouse DLL3 protein): binds
binding result (mouse DLL3 on CHO cells): binds
binning response (unit not given) [1]: 0
binning response (unit not given) [2]: 347
binning response (unit not given) [3]: 407
binning response (unit not given) [4]: 120
binning response (unit not given) [5]: 3510
binning response (unit not given) [6]: 9.03
DLL3 / control (DLL3 (ELISA DLL3)): 65.7
Kd [7]: 5.15 nM
kon [8]: 249000 M⁻¹ s⁻¹
koff [9]: 0.00128 s⁻¹

B4: anti-human DLL3 BiTE (bispecific antibody)
chain: QVQLQESGPGLVKPSETLSLTCTVSGGSISSYYWSWIRQPPGKGLEWIGYVYYSGTTNYNPSLKSRVTISVDTSKNQFSLKLSSVTAADTAVYYCASIAVTGFYFDYWGQGTLVTVSSGGGGSGGGGSGGGGSEIVLTQSPGTLSLSPGERVTLSCRASQRVNNNYLAWYQQRPGQAPRLLIYGASSRATGIPDRFSGSGSGTDFTLTISRLEPEDFAVYYCQQYDRSPLTFGGGTKLEIK
notes: also called DLL3 BiTEs
binning response (unit not given) [1]: 121
binning response (unit not given) [2]: 82.5
binning response (unit not given) [3]: 1500
binning response (unit not given) [4]: 125
binning response (unit not given) [5]: 1280
binning response (unit not given) [6]: 0

The next lines start with the values.

binding result (mouse DLL3 protein): binds
binding result (mouse DLL3 on CHO cells): binds
binning response (unit not given) [1]: -54.4
binning response (unit not given) [2]: -48.2
binning response (unit not given) [3]: 204
binning response (unit not given) [4]: 0
binning response (unit not given) [5]: 1210
binning response (unit not given) [6]: 68.3
DLL3 / control (DLL3 (ELISA DLL3)): 18.8
Kd [10]: 5.35 nM
kon [11]: 192000 M⁻¹ s⁻¹
koff [12]: 0.00103 s⁻¹
B2: 3HCE87 anti-DLL3 VHH (VHH)
VHH: QVQLQESGGGLVQAGGSLRLSCAASGFIFDDYIIGWFRQAPGKEREFVAAISWSGSATAYADSVKGRFTISRDNAKNTLYLQMNTLKPEDTAVYYCAASSRGPYNSGSSYDYWGQGTQVTVSS
notes: as for B1

binding result (mouse DLL3 protein): binds
binding result (mouse DLL3 on CHO cells): binds
binning response (unit not given) [1]: -90.1
binning response (unit not given) [2]: -73
binning response (unit not given) [3]: -207
binning response (unit not given) [4]: -98.7
binning response (unit not given) [5]: 0
binning response (unit not given) [6]: -23.2
DLL3 / control (DLL3 (ELISA DLL3)): 29.4
Kd [13]: 101 nM
kon [14]: 5960 M⁻¹ s⁻¹
koff [15]: 0.0006 s⁻¹
B3: 2HCE117 anti-DLL3 VHH (VHH)
VHH: QVQLQESGGGLVQPGGSLRLSCAASGFTFSSYAMSWVRQAPGKGLEWVSDINSGGGSTYYADSVKGRFTISRDNAKNTLYLQMDSLKPEDTAVYYCATPFEIGSWGQGTQVTVSS
notes: as for B1

From patent US20230227577A1 (MYTHIC THERAPEUTICS, published 2023)
